The text below walks through data of patent US6309839.

Data set [1] concerns the target T1, gp41 helicase (bacteriophage T4?) (UniProt P04530).
T1 sequence: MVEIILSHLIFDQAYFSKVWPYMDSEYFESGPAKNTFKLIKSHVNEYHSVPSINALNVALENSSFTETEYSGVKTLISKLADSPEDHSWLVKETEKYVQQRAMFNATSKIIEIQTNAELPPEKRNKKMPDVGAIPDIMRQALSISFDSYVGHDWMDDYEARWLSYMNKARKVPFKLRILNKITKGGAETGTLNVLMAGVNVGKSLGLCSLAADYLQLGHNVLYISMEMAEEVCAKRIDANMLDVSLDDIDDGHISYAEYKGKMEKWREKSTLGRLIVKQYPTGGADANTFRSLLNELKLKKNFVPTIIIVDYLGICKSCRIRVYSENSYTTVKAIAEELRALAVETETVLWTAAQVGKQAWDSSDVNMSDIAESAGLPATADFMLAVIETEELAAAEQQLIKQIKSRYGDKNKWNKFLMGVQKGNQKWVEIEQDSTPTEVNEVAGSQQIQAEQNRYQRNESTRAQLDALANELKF
As to conditions: biotin at position 60, streptavidin-bound; streptavidin displacement rate at 4 uM gp41; 5 mM ATP, 12.5 mM Mg(OAc)2, 150 mM KOAc, pH 7.5, 37 C; none without ATP.

The target in data set [2] is T2, Dda helicase (bacteriophage T4?) (UniProt P32270).
T2 sequence: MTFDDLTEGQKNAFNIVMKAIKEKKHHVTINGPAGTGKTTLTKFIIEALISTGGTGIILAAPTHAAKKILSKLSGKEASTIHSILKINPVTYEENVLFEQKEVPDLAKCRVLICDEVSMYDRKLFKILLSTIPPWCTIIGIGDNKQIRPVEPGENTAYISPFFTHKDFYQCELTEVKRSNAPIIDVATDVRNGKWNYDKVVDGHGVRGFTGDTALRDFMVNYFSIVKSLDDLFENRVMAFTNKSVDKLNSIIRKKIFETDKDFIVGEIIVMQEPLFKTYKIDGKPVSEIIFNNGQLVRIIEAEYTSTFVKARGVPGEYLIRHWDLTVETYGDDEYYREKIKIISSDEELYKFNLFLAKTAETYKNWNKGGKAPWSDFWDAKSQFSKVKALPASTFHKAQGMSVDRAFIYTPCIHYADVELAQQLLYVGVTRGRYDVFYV
The conditions noted are these: biotin at position 60, streptavidin-bound; streptavidin displacement rate at 1 uM Dda, preincubated with DNA, 5 mM ATP, Mg2+.

In data set [3] the target is NS3 helicase (full length) (Hepatitis C virus) (UniProt P26663). As to conditions: biotin at position 2, streptavidin-bound; streptavidin displaced from 5' end; 10 nM NS3, 100 nM oligonucleotide.
Chain of NS3 helicase (full length) (Hepatitis C virus) (P26663 1027-1657): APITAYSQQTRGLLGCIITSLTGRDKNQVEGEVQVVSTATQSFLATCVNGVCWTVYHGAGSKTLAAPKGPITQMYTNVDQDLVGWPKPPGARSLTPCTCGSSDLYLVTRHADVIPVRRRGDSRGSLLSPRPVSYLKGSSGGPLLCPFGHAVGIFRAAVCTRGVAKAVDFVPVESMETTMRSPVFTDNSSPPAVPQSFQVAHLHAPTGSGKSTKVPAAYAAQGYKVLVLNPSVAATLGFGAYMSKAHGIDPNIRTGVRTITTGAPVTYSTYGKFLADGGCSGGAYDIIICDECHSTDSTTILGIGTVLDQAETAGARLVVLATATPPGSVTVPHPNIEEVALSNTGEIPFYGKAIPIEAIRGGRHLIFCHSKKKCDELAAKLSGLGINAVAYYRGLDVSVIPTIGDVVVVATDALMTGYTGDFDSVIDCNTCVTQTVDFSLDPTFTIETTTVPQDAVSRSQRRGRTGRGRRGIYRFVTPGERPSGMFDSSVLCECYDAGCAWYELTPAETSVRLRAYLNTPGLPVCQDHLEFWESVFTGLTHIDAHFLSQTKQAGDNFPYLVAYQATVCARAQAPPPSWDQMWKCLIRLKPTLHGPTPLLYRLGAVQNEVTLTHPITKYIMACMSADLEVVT

Consider 3'-bio-61-mer (called 62-mer in text), for which the activity in data set [1] stood at 0.17 min⁻¹; in data set [2], 7.9 s⁻¹.

In data set [3], 5'-bio-60-mer showed an activity (fold over spontaneous dissociation) of over 100.
